# B1: purified budding yeast tubulin heterodimer, Tub1-WT (internal 6X-His) with Tub2 [S. cerevisiae] / GST-TOG1/2 (the two TOG domains of Stu2 fused to a GST tag, Stu2 1-590) [S. cerevisiae] (parent complex)
# chain 1: MREVISINVGQAGCQIGNACWELYSLEHGIKPDGHLEDGLSKPKGGEEGFSTFFHETGYGKFVPRAIYVDLEPNVIDEVRNGPYKDLFHPEQLISGKEDAANNYARGHYTVGREILGDVLDRIRKLADQCDGLQGFLFTHSLGGGTGSGLGSLLLEELSAEYGKKSKLEFAVYPAPQVSTSVVEPYNTVLTTHTTLEHADCTFMVDNEAIYDMCKRNLDIPRPSFANLNNLIAQVVSSVTASLRFDGSLNVDLNEFQTNLVPYPRIHFPLVSYSPVLSKSKAFHESNSVSEITNACFEPGNQMVKCDPRDGKYMATCLLYRGDVVTRDVQRAVEQVKNKKTVQLVDWCPTGFKIGICYEPPTATPNSQLATVDRAVCMLSNTTSIAEAWKRIDRKFDLMYAKRAFVHWYVGEGMEEGEFTEAREDLAALERDYIEVGADSYAEEEEF
# chain 2: MREIIHISTGQCGNQIGAAFWETICGEHGLDFNGTYHGHDDIQKERLNVYFNEASSGKWVPRSINVDLEPGTIDAVRNSAIGNLFRPDNYIFGQSSAGNVWAKGHYTEGAELVDSVMDVIRREAEGCDSLQGFQITHSLGGGTGSGMGTLLISKIREEFPDRMMATFSVLPSPKTSDTVVEPYNATLSVHQLVEHSDETFCIDNEALYDICQRTLKLNQPSYGDLNNLVSSVMSGVTTSLRYPGQLNSDLRKLAVNLVPFPRLHFFMVGYAPLTAIGSQSFRSLTVPELTQQMFDAKNMMAAADPRNGRYLTVAAFFRGKVSVKEVEDEMHKVQSKNSDYFVEWIPNNVQTAVCSVAPQGLDMAATFIANSTSIQELFKRVGDQFSAMFKRKAFLHWYTSEGMDELEFSEAESNMNDLVSEYQQYQEATVEDDEEVDENGDFGAPQNQDEPITENFE
# chain 3: MSGEEEVDYTTLPLEERLTYKLWKARLEAYKELNQLFRNSVGDISRDDNIQIYWRDPTLFAQYITDSNVVAQEQAIVALNSLIDAFASSSLKNAHNITLISTWTPLLVEKGLTSSRATTKTQSMSCILSLCGLDTSITQSVELVIPFFEKKLPKLIAAAANCVYELMAAFGLTNVNVQTFLPELLKHVPQLAGHGDRNVRSQTMNLIVEIYKVTGNNSDLLEEILFKKLKPIQVKDLHKLFAKVGDEPSSSKMLFEWEKRELEKKRSQEEEARKRKSILSNDEGEYQIDKDGDTLMGMETDMPPSKQQSGVQIDTFSMLPEETILDKLPKDFQERITSSKWKDRVEALEEFWDSVLSQTKKLKSTSQNYSNLLGIYGHIIQKDANIQAVALAAQSVELICDKLKTPGFSKDYVSLVFTPLLDRTKEKKPSVIEAIRKALLTICKYYDPLASSGRNEDMLKDILEHMKHKTPQIRMECTQLFNASMKEEKDGYSTLQRYLKDEVVPIVIQIVNDTQPAIRTIGFESFAILIKIFGMNTFVKTLEHLDNLKRKKIEETVKTLPNFSIASGSTHSTIETNKQTGPMENKFLLK
# Variants of: B1
# Test: in vitro binding assay: unbound tubulin in supernatant after GST-TOG1/2 incubation, α-tubulin western blot; highest GST-TOG1/2 concentration, est. ~5000 nM read from x axis; low constant tubulin concentration; n=3 experiments; parent: 14; read off a plot
row,Variant,screen value [%]
1,chain 1 V410A,~85
2,chain 1 V410I,~71

# — paper PMC9236607, “TUBA1A tubulinopathy mutants disrupt neuron morphogenesis and override XMAP215/Stu2 regulation of microtubule dynamics” (eLife, 2022)
